This passage reports protein stability index results from the supplement of paper PMC10567573.

B1: OAS1 (parent)
chain: LTVYAWERGSMKTHFNTAQGFRTV
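Further: lentivirally expressed fusions sorted by FACS into six bins by GFP to DsRed ratio, PSI derived from sequencing read proportions per bin multiplied by bin number.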

The series covers variants of B1. Briefly: protein stability index of a GFP-peptide fusion (GPS, HEK-293T) (PSI 1-6); higher = more stable. The following applies: c terminus: a fixed tail appended.
As to LTVYAWERGSMKTHFNTWQGFRTV, the protein stability index is 2.73.

Take LTVYAWERGSMKTHFNTNQGFRTV: the protein stability index amounted to 2.63.

For the variant LTVYAWERGSMKTHFNTDQGFRTV, the protein stability index was 4.02.

For LTVYAWERGSMKTHFNTCQGFRTV, the protein stability index worked out at 1.88.

Regarding LTVYAWERGSMKTHFNTGQGFRTV, the protein stability index was 2.64.

For LTVYAWERGSMKTHFNTTQGFRTV, the protein stability index is 2.39.

Consider LTVYAWERGSMKTHFNTMQGFRTV, for which the protein stability index came out at 2.79.

In the case of LTVYAWERGSMKTHFNTYQGFRTV, the protein stability index was determined as 4.24.

On to LTVYAWERGSMKTHFNTEQGFRTV, for which the protein stability index was 1.54.

LTVYAWERGSMKTHFNTSQGFRTV: the protein stability index was determined as 1.2.

As to LTVYAWERGSMKTHFNTIQGFRTV, the protein stability index was found to be 4.47.

In the case of LTVYAWERGSMKTHFNTQQGFRTV, the protein stability index worked out at 2.79.

For the variant LTVYAWERGSMKTHFNTKQGFRTV, the protein stability index amounted to 2.67.

Consider LTVYAWERGSMKTHFNTFQGFRTV, for which the protein stability index was found to be 2.56.

On to LTVYAWERGSMKTHFNTLQGFRTV, for which the protein stability index stood at 4.32.

On to LTVYAWERGSMKTHFNTRQGFRTV, for which the protein stability index came to 2.84.

Regarding LTVYAWERGSMKTHFNTHQGFRTV, the protein stability index is 3.09.

Regarding LTVYAWERGSMKTHFNTVQGFRTV, the protein stability index is 3.42.

For LTVYAWERGSMKTHHNTAQGFRTV, the protein stability index worked out at 2.39.

For the variant LTVYAWERGSMKTHKNTAQGFRTV, the protein stability index came to 2.01.

Regarding LTVYAWERGSMKTHCNTAQGFRTV, the protein stability index stood at 1.96.

For LTVYAWERGSMKTHPNTAQGFRTV, the protein stability index is 1.52.

On to LTVYAWERGSMKTHTNTAQGFRTV, for which the protein stability index amounted to 1.9.

Consider LTVYAWERGSMKTHWNTAQGFRTV, for which the protein stability index turned out to be 2.62.

Consider LTVYAWERGSMKTHQNTAQGFRTV, for which the protein stability index was found to be 1.53.

As to LTVYAWERGSMKTHDNTAQGFRTV, the protein stability index turned out to be 2.47.

With LTVYAWERGSMKTHSNTAQGFRTV, the protein stability index is 2.49.

Regarding LTVYAWERGSMKTHINTAQGFRTV, the protein stability index was 2.88.

As for LTVYAWERGSMKTHANTAQGFRTV, the protein stability index was 2.35.

Turning to LTVYAWERGSMKTHENTAQGFRTV, the protein stability index worked out at 2.27.

For LTVYAWERGSMKTHNNTAQGFRTV, the protein stability index was 1.55.

As for LTVYAWERGSMKTHRNTAQGFRTV, the protein stability index was 2.93.

Regarding LTVYAWERGSMKTHLNTAQGFRTV, the protein stability index was found to be 2.21.

Take LTVYAWERGSMKTHGNTAQGFRTV: the protein stability index was determined as 1.61.

As to LTVYAWERGSMKTHYNTAQGFRTV, the protein stability index came to 2.28.

Regarding LTVYAWERGSMKTHMNTAQGFRTV, the protein stability index was determined as 2.26.

Take LTVYAWERGSMKTHVNTAQGFRTV: the protein stability index turned out to be 2.08.

Regarding LTVYAWERGSMKTHFNTAQGRRTV, the protein stability index is 1.82.

As to LTVYAWERGSMKTHFNTAQGDRTV, the protein stability index was found to be 2.09.

Regarding LTVYAWERGSMKTHFNTAQGHRTV, the protein stability index was determined as 1.74.

As for LTVYAWERGSMKTHFNTAQGTRTV, the protein stability index is 1.96.

With LTVYAWERGSMKTHFNTAQGGRTV, the protein stability index came out at 1.4.

Turning to LTVYAWERGSMKTHFNTAQGCRTV, the protein stability index is 2.35.

As for LTVYAWERGSMKTHFNTAQGERTV, the protein stability index worked out at 2.1.

Take LTVYAWERGSMKTHFNTAQGQRTV: the protein stability index worked out at 1.65.

On to LTVYAWERGSMKTHFNTAQGIRTV, for which the protein stability index stood at 2.09.

For the variant LTVYAWERGSMKTHFNTAQGVRTV, the protein stability index is 1.82.

With LTVYAWERGSMKTHFNTAQGPRTV, the protein stability index came out at 2.33.

LTVYAWERGSMKTHFNTAQGYRTV: the protein stability index worked out at 2.9.

Consider LTVYAWERGSMKTHFNTAQGSRTV, for which the protein stability index stood at 2.42.

Regarding LTVYAWERGSMKTHFNTAQGWRTV, the protein stability index amounted to 2.21.

For the variant LTVYAWERGSMKTHFNTAQGKRTV, the protein stability index was 2.27.

Consider LTVYAWERGSMKTHFNTAQGMRTV, for which the protein stability index amounted to 1.9.

Turning to LTVYAWERGSMKTHFNTAQGARTV, the protein stability index worked out at 1.9.

For LTVYAWERGSMKTHFNTAQGNRTV, the protein stability index worked out at 2.87.

As for LTVYAWERGSMKTHFNTAQGLRTV, the protein stability index is 2.67.

In the case of LTVYAWERGSTKTHFNTAQGFRTV, the protein stability index was 2.09.

In the case of LTVYAWERGSRKTHFNTAQGFRTV, the protein stability index amounted to 2.16.

Regarding LTVYAWERGSSKTHFNTAQGFRTV, the protein stability index amounted to 2.19.

As for LTVYAWERGSVKTHFNTAQGFRTV, the protein stability index is 2.09.

As for LTVYAWERGSYKTHFNTAQGFRTV, the protein stability index came to 3.28.

LTVYAWERGSMKTHFNTAQKFRTV: the protein stability index turned out to be 1.61.

For LTVYAWERGSMKTHFNTAQPFRTV, the protein stability index was determined as 2.25.

Turning to LTVYAWERGSMKTHFNTAQIFRTV, the protein stability index amounted to 3.

As to LTVYAWERGSMKTHFNTAQRFRTV, the protein stability index was determined as 3.81.

As to LTVYAWERGSMKTHFNTAQYFRTV, the protein stability index is 3.45.

For the variant LTVYAWERGSMKTHFNTAQHFRTV, the protein stability index worked out at 2.56.

For the variant LTVYAWERGSMKTHFNTAQFFRTV, the protein stability index stood at 2.39.

As for LTVYAWERGSMKTHFNTAQSFRTV, the protein stability index stood at 3.02.

In the case of LTVYAWERGSMKTHFNTAQTFRTV, the protein stability index came to 2.89.

As to LTVYAWERGSMKTHFNTAQNFRTV, the protein stability index is 2.19.

In the case of LTVYAWERGSMKTHFNTAQDFRTV, the protein stability index came out at 2.18.

In the case of LTVYAWERGSMKTHFNTAQLFRTV, the protein stability index came to 3.19.

As for LTVYAWERGSMKTHFNTAQCFRTV, the protein stability index came out at 2.06.

Turning to LTVYAWERGSMKTHFNTAQQFRTV, the protein stability index came out at 2.14.

LTVYAWERGSMKTHFNTAQVFRTV: the protein stability index came out at 2.89.

Take LTVYAWERGSMKTHFNTAQAFRTV: the protein stability index was found to be 2.49.

Turning to LTVYAWERGSMKTHFNTAQWFRTV, the protein stability index was 1.9.

For the variant LTVYAWERGSMKTHFNTAQEFRTV, the protein stability index came out at 3.23.

LTVYAWERGSMKCHFNTAQGFRTV: the protein stability index amounted to 1.13.

Turning to LTVYAWERGSMKLHFNTAQGFRTV, the protein stability index is 2.99.

Take LTVYAWERGSMKYHFNTAQGFRTV: the protein stability index was 3.56.

For LTVYAWERGSMKSHFNTAQGFRTV, the protein stability index came to 2.01.

LTVYAWERGSMKVHFNTAQGFRTV: the protein stability index worked out at 2.68.

LTVYAWERGSMKRHFNTAQGFRTV: the protein stability index stood at 1.64.

Turning to LTVYAWERGSMKQHFNTAQGFRTV, the protein stability index amounted to 2.06.

LTVYAWERGSMKAHFNTAQGFRTV: the protein stability index is 2.88.

As for LTVYAWERGSMKDHFNTAQGFRTV, the protein stability index was 2.74.

Consider LTVYAWERGSMKPHFNTAQGFRTV, for which the protein stability index was determined as 2.06.

Turning to LTVYAWERGSMKGHFNTAQGFRTV, the protein stability index was determined as 2.33.

For the variant LTVYAWERGSMKNHFNTAQGFRTV, the protein stability index came out at 2.25.

As to LTVYAWERGSMKMHFNTAQGFRTV, the protein stability index was found to be 3.37.

For LTVYAWERGSMKFHFNTAQGFRTV, the protein stability index came out at 3.1.

Take LTVYAWERGSMKIHFNTAQGFRTV: the protein stability index was found to be 2.75.
